From paper PMC9179584 (2022) come the findings set out here.

First the molecules themselves.
B1: SMAD2 wild type, overexpressed from pCMV5b-SMAD2 [not stated] / SMAD Anchor for Receptor Activation (SARA) [human (endogenous in HT-1080)] (parent complex)
chain 1: MSSILPFTPPVVKRLLGWKKSAGGSGGAGGGEQNGQEEKWCEKAVKSLVKKLKKTGRLDELEKAITTQNCNTKCVTIPSTCSEIWGLSTPNTIDQWDTTGLYSFSEQTRSLDGRLQVSHRKGLPHVIYCRLWRWPDLHSHHELKAIENCEYAFNLKKDEVCVNPYHYQRVETPVLPPVLVPRHTEILTELPPLDDYTHSIPENTNFPAGIEPQSNYIPETPPPGYISEDGETSDQQLNQSMDTGSPAELSPTTLSPVNHSLDLQPVTYSEPAFWCSIAYYELNQRVGETFHASQPSLTVDGFTDPSNSERFCLGLLSNVNRNATVEMTRRHIGRGVRLYYIGGEVFAECLSDSAIFVQSPNCNQRYGWHPATVCKIPPGCNLKIFNNQEFAALLAQSVNQGFEAVYQLTRMCTIRMSFVKGWGAEYRRQTVTSTPCWIELHLNGPLQWLDKVLTQMGSPSVRCSSMS
chain 2: MENYFQAEAYNLDKVLDEFEQNEDETVSSTLLDTKWNKILDPPSHRLSFNPTLASVNESAVSNESQPQLKVFSLAHSAPLTTEEEDHCANGQDCNLNPEIATMWIDENAVAEDQLIKRNYSWDDQCSAVEVGEKKCGNLACLPDEKNVLVVAVMHNCDKRTLQNDLQDCNNYNSQSLMDAFSCSLDNENRQTDQFSFSINESTEKDMNSEKQMDPLNRPKTEGRSVNHLCPTSSDSLASVCSPSQLKDDGSIGRDPSMSAITSLTVDSVISSQGTDGCPAVKKQENYIPDEDLTGKISSPRTDLGSPNSFSHMSEGILMKKEPAEESTTEESLRSGLPLLLKPDMPNGSGRNNDCERCSDCLVPNEVRADENEGYEHEETLGTTEFLNMTEHFSESQDMTNWKLTKLNEMNDSQVNEEKEKFLQISQPEDTNGDSGGQCVGLADAGLDLKGTCISESEECDFSTVIDTPAANYLSNGCDSYGMQDPGVSFVPKTLPSKEDSVTEEKEIEESKSECYSNIYEQRGNEATEGSGLLLNSTGDLMKKNYLHNFCSQVPSVLGQSSPKVVASLPSISVPFGGARPKQPSNLKLQIPKPLSDHLQNDFPANSGNNTKNKNDILGKAKLGENSATNVCSPSLGNISNVDTNGEHLESYEAEISTRPCLALAPDSPDNDLRAGQFGISARKPFTTLGEVAPVWVPDSQAPNCMKCEARFTFTKRRHHCRACGKVFCASCCSLKCKLLYMDRKEARVCVICHSVLMNAQAWENMMSASSQSPNPNNPAEYCSTIPPLQQAQASGALSSPPPTVMVPVGVLKHPGAEVAQPREQRRVWFADGILPNGEVADAAKLTMNGTSSAGTLAVSHDPVKPVTTSPLPAETDICLFSGSITQVGSPVGSAMNLIPEDGLPPILISTGVKGDYAVEEKPSQISVMQQLEDGGPDPLVFVLNANLLSMVKIVNYVNRKCWCFTTKGMHAVGQSEIVILLQCLPDEKCLPKDIFNHFVQLYRDALAGNVVSNLGHSFFSQSFLGSKEHGGFLYVTSTYQSLQDLVLPTPPYLFGILIQKWETPWAKVFPIRLMLRLGAEYRLYPCPLFSVRFRKPLFGETGHTIMNLLADFRNYQYTLPVVQGLVVDMEVRKTSIKIPSNRYNEMMKAMNKSNEHVLAGGACFNEKADSHLVCVQNDDGNYQTQAISIHNQPRKVTGASFFVFSGALKSSSGYLAKSSIVEDGVMVQITAENMDSLRQALREMKDFTITCGKADAEEPQEHIHIQWVDDDKNVSKGVVSPIDGKSMETITNVKIFHGSEYKANGKVIRWTEVFFLENDDQHNCLSDPADHSRLTEHVAKAFCLALCPHLKLLKEDGMTKLGLRVTLDSDQVGYQAGSNGQPLPSQYMNDLDSALVPVIHGGACQLSEGPVVMELIFYILENIV
B2: SMAD3 wild type, overexpressed from pCMV5b-SMAD3 [not stated] / SMAD Anchor for Receptor Activation (SARA) [human (endogenous in HT-1080)] (parent complex)
chain 1: MSSILPFTPPIVKRLLGWKKGEQNGQEEKWCEKAVKSLVKKLKKTGQLDELEKAITTQNVNTKCITIPRSLDGRLQVSHRKGLPHVIYCRLWRWPDLHSHHELRAMELCEFAFNMKKDEVCVNPYHYQRVETPVLPPVLVPRHTEIPAEFPPLDDYSHSIPENTNFPAGIEPQSNIPETPPPGYLSEDGETSDHQMNHSMDAGSPNLSPNPMSPAHNNLDLQPVTYCEPAFWCSISYYELNQRVGETFHASQPSMTVDGFTDPSNSERFCLGLLSNVNRNAAVELTRRHIGRGVRLYYIGGEVFAECLSDSAIFVQSPNCNQRYGWHPATVCKIPPGCNLKIFNNQEFAALLAQSVNQGFEAVYQLTRMCTIRMSFVKGWGAEYRRQTVTSTPCWIELHLNGPLQWLDKVLTQMGSPSIRCSSVS
chain 2: B1 chain 2

In the first experiment the parent is B1. Nature of the experiment: co-immunoprecipitation (IP: SMAD2, blot SARA) with densitometry; HT-1080 cells transiently transfected; ratio printed relative to the pCMV5b empty-vector lane = 1; parent: 1.2.
For the variant chain 1 N381S, the screen value worked out at 0.5.

Another experiment covers variants of B2. Nature of the experiment: co-immunoprecipitation (IP: SMAD3, blot SARA) with densitometry; HT-1080 cells transiently transfected; ratio printed relative to the pCMV5b empty-vector lane = 1; parent: 0.6.
Consider chain 1 N339S, for which the screen value is 0.2.
